Measured values published in the DeepSol protein solubility set.

Assay: soluble on expression in E. coli; label from the status in PepcDB or PDB records

Row | Sequence | soluble on expression in E. coli
1 | SNHFGNHCTNTSGVVCHNNYNCTIDNSIHYADTRGVVSHHRENITGHHGLVFPAATMNGYGPATSFPDMRENGHLMVNQNRPVTLRPSMSQQQPQPQPLSDEYNKVETGTAEQVYVPSRD | soluble
2 | MGHHHHHHSHMDPDTFTFNFNNDPLVLRRRQTYLCYEVERLDNGWMVLMDQHMGFLCNEAKNLLCGFYGRHADWRFLDLVPSLQLDPAQIYRVTWFISWSPCFSWGCAGEVRAFLQENTHVRLPIFAARIYDYDPLYKEALQMLRDAGAQVSIMTYDEFEYCWDTFVYRQGCPFQPWDGLEEHSQALSGRLRAILQNQGN | not soluble
3 | GNSIASCADEQPHIGNYRLLKTIGKGNFAKVKLARHILTGREVAIKIIDKTQLNPTSLQKLFREVRIMKILNHPNIVKLFEVIETEKTLYLIMEYASGGEVFDYLVAHGRMKEKEARSKFRQIVSAVQYCHQKRIVHRDLKAENLLLDADMNIKIADFGFSNEFTVGGKLDAFCGAPPYAAPELFQGKKYDGPEVDVWSLGVILYTLVSGSLPFDGQNLKELRERVLRGKYRIPFYMSTDCENLLKRFLVLNPIKRGTLEQIMKDRWINAGHEEDELKPFVEPELDISDQKRIDIMVGMGYSQEEIQESLSKMKYDEITATYLLLGRK | soluble
4 | MKIVYWSGTGNTEKMAELIAKGIIESGKDVNTINVSDVNIDELLNEDILILGCSAMADEVLEESEFEPFIEEISTKISGKKVALFGSYGWGDGKWMRDFEERMNGYGCVVVETPLIVQNEPDEAEQDCIEFGKKIANI | soluble
5 | MGSDKIHHHHHHDLDENVYDKLPTDEFGTTEKQINAIMAPAYQSLKNMLAYDGPWGAADMTADILIAPTRVGGDWWDGGQYMEQCMHSWKPNSYSVENCWTYCTEGLTTVNSVYNIIEKSEAMSDELKLQYLSELRGLRAFWYYVIVDIFGNAPLVTDFEDTSLPSITSRADLYKYVVKELTEIIPNLRSDVSDASYGKFTQGAARMVLAKMYLNAEEWIGEPNWKGVVEQCDEIMKLEYIIEPNWKTNFEVHNEVSREIIFPICYKASDAWGNSIHLWTLHYLDPDVLGFTGGMWNGINAQPDFVRTFDTEDPRYEGSFLIGPMIDPSTGEILKTTLGHDLIHTIDLNVVPGTEKTDADGNLTPWGEVHQEDGARINKWVYEKGMQNTNMENDIAIFRLADVYLMKAEALVRMGGDLGEATRLVNAIRERAYGNSDHNYTSVTLDDIYNERGYELAFEFVRRQDMIRFGTYLKPRYMKPKQTPEYRKIFPIPFKAWQKNNNLVQNPGYPAF | not soluble
6 | MPIIASESSHESIPQDFMDAVESMHKAQLRPEISLGTIRPPQRLAPFSHAVGLEVSGTLSDDSQGDAFGRLILLHDPTSDESWDGSMRLVAYIQADMDASVANDPLLPDVAWQWLTEALDKTHADHTNLGGTVTATASVRFGEIGGPPRAYQVEMRASWTATAIDLAPHVSAFAQVLANVAGLSPEGTTSISR | not soluble
7 | MGSDKIHHHHHHMAKYEQLAQELKTRIAQGVWQAGDKLPSLRQTVADSGLSLMTVLNAYQLLESQGVISAQAKSGYLVAPKPELIARQGEAFRYPERQKPIYLSDSVDINEFVFNVLQASKQADIVPFGSGFPDPSLFPQQALARSLVKVTRHMSPSFAADNLPPGNAGLRKAISQRYAKLGMSISPDEIIITSGAMEALNLSLATLTQAGDWVVIESPTFYGAMQAIERLKLKAIAVATDPQQGIDLEALAEVLKTYPVKACWLMSQHQNPLGCSLSDTKKQALYQLLNEHKVSLIEDDVYQELYVDSSAPRSVKAFDTEGRVLHCGSFSKSLIAGYRVGWVAAGCHAPQLQRLQVMSTLSTSAPMQLAIADFIQSAQYERHLKQLRKKLASRKLAMYQLLCAHLPESVGVNFAQGGYFLWLALPAHMDATQIYYQAIERGISIAPGNLFSNQVEFRHFMRLNASYECSSEIVSAVMVLAELIRNYSRRS | not soluble
8 | MKCPRCGREYISSIPPFCICGEELEITYDYSSVDVRKWKRRNPGVWRYKELLPEVKKIITLQEGGTPLIKARISEKINVDVYIKDETRNPTGSFRDRLATVAISYGLPYASNGFIVASDGNAAASVAAYSARAEKECFVVVPRKVDKGKLIQMIAFGARIIRYGDSVDEAIEYARELSKLNGLYNVTPEDNIIGLEGQKTIAFELWEEINPTHVIVPTGSGSYIYSIYKGFKELIKIGVLEKMPRLIAVQTERCNPIAAEILGLKKECKETKALGLYVKNPVMKSRVIRAIKESGGTAVVVNENDIITGEKLLANEGIFAELSSAVVMPALLSLVEKGIIEKGDKVVLVVTGSGLKIGEGGREKFSIGGTKLEILKILEEREMYAYEIWQALGKPLKYQAVHQHIKELQELGLIKEAYRKGKRIYYKLTERGRRLIENLE | soluble
9 | MPGLEKTRIVDPILTNVAIGYKNAEYVGESLFPVVPVDKEQGKIPKWGAEAFRIYNTRRQIRSKTNRIEMDATTVPYSLEEEALEAPIDDRELEEAAEVLKLEMSRTKMLTDNIRLKMEKDQADVAQNVANYSPGHVEALSGTDKFSDPASKPIDVIGDARATVRSKIGIYPNVLLMGASVYEVLKNHSAIIDKIKYSQKGIATPTCSQKSST | not soluble
10 | MSKNVGKLVKIWNESEVLVDRKSKFQARCCPLQNQKDIPSILQELTQNNKSVSKASHMHMYAWRTAEVSNNLHLQQEQKKKGNKANKSNNSHVNKSRNITVQPKNIEQGCADCGEAGAGQRLLTLLERANIFNVLVIVTRWYGGTPLGSSRFRHISTCAVETLKKGGFLP | soluble
11 | MGSDKIHHHHHHMMGMKETVSNIVTSQAEKGGVKHVYYVACGGSYAAFYPAKAFLEKEAKALTVGLYNSGEFINNPPVALGENAVVVVASHKGNTPETIKAAEIARQHGAPVIGLTWIMDSPLVAHCDYVETYTFGDGKDIAGEKTMKGLLSAVELLQQTEGYAHYDDFQDGVSKINRIVWRACEQVAERAQAFAQEYKDDKVIYTVASGAGYGAAYLQSICIFMEMQWIHSACIHSGEFFHGPFEITDANTPFFFQFSEGNTRAVDERALNFLKKYGRRIEVVDAKELGLSTIKTTVIDYFNHSLFNNVYPVYNRALAEARQHPLTTRRYMWKVEY | not soluble
12 | MGSDKIHHHHHHMSIAPFLEAAGWAEATATPLAGDASSRRYTRLSRGAETAVLMQAPVATKADHASFDAFRKIGAHLRGQNLSAPKEYAADPTNGLILMEDLGDQTLARLLKDDAQTAQIAYNATANLLPHLKVHAPPHLAAPDARAMAQMVALTFDQLPDSAILRDTLLEALAEALTTHAPGAPTLSLRDVHAENLLWLPDRDGPARVGLLDFQDALLLPEGYDLASLLDDPRREVPEVWRADLIAAHSAPTRIAVLSLQRNLRILGIFRRLSTTLGKPAYGAFLPRTRTLIARAASDLPPMLAPVTELLDRTAHWTAP | not soluble
13 | VVGNMTPDFLGSVATTLTWKDLSLNVGLDMRFGGLVASYCNLYGTQAGWTESSLQYRDPEHGGMTWTSQYADSKGIQYTDGMIPEGVFKEGTIATLVDGTKMDVSGLSYAQLVQEGKLEPTHAGSWYGNNYAWGAQTIDDIWVHKLSYIALRNITINYRLPNSISHKLGAKGLNLSFSARNLGYLYNSLPNNLNPESVRSNSASEFRIRGFEPYTASYIFTINANF | not soluble
14 | MKCLVTGGNVKVLGKAVHSLSRIGDELYLEPLEDGLSLRTVNSSRSAYACFLFAPLFFQQYQAATPGQDLLRCKILMKSFLSVFRSLAMLEKTVEKCCISLNGRSSRLVVQLHCKFGVRKTHNLSFQDCESLQAVFDPASCPHMLRAPARVLGEAVLPFSPALAEVTLGIGRGRRVILRSYHEEEADSTAKAMVTEMCLGEEDFQQLQAQEGVAITFCLKEFRGLLSFAESANLNLSIHFDAPGRPAIFTIKDSLLDGHFVLATLSDTDSHSQDLGSPERHQPVPQLQAHSTPHPDDFANDDIDSYMIAMETTIGNEGSRVLPSISLSPGPQPPKSPGPHSEEEDEAEPSTVPGTPPPKKFRSLFFGSILAPVRSPQGPSPVLAEDSEGEGLEHHHHHH | not soluble
15 | MLSTNNITMQFGSKPLFENISVKFGGGNRYGLIGANGCGKSTFMKILGGDLVPSGGNVFLDPNERLGKLRQDQFAFENNTVLDTVIMGHGELWEVKEERDRIYAMAEMSEEDGYKVADLEVAYGEMDGYSAEARAGELLLGVGIPVEQHYGLMSEIAPGWKLRVLLAQALFSDPEILLLDEPTNNLDIDTIRWLEQVLNERNSTMIIISHDRHFLNMVCTHMADLDYGELRVYPGNYDEYMTAATQARERLLSDNAKKKAQISELQSFVSRFSANASKSKQATSRARQIDKIQLDEVKASSRQNPFIRFDQDRKLFRNALEVEMLTKGFDNGPLFKNLTLRLEVGEKVAILGPNGIGKSTLLKTLLGEYESDAGTVKWSENSKIGYYAQDHASDFDIDLTVFDWMSQWKQEKDDEQAVRSVLGRLLFSQDDIKKKVSVLSGGEKGRMLFGKLMMQRPNILVMDEPTNHLDMESIESLNMALEMYEGTLIFVSHDREFVSSLATRVIEMTPNKLIDFTGNYEDYLSSQGIHS | not soluble
16 | MKMKLTAAIIAAFVIIMGCAGGPKASKADELDLAIRDTSDYLNDNIPKGNKIIILNIQSDYASLSDYIIDELIANAVNDKIFKVVDRAQLEQIRAELNFQWSGEVDDKSALEIGKFLGAQTIVSGAISELGDRYRMRLRALNVQTSQVQGQYNRNIAAGKTIAALMKGGKSANTVYGGRTASGNANDTTAANQTPSRQPATPSSPQGSTKPVTTTYKIGDTGPAGGLIFYDKGNNIGGWRYLEAAPSDLGPNKFITEDPGSLPKNLYDLWEKTDGDKGRGVGKGKYNTEFLMGIAQARGGFNWAIRLCDEYELNGYNDWFMPSRDELNFMYGNLHMKGLGNFRLEQYWSSTGWQDTWGSYSAWYINFEDGTAAYQNASQPRRFRPIRQF | not soluble
17 | MKTPRLPIAIQQAVMRRLRENLAQANLKLDRHYPEPKLVYTQRGTSAGTAWLESYEIRLNPVLLLENIDTFIAEVVPHELTHLLVWKHFGRKAPHGKEWKWMMESVLGVPARRTHQFALQSVRRNTFPYHCQCQQHQLTVRRHNRVVRGEAVYRCVHCGEPLVAGLEHHHHHH | not soluble
18 | MSQAHTPSAPLAEVYDVAVVGGGINGVGIAADAAGRGLSVFLCEQHDLAQHTSSASSKLIHGGLRYLEHYEFRLVREALAEREVLLAKAPHIVKPLRFVLPHRPHLRPAWMIRAGLFLYDHLGKREKLPASRGLRFTGSSPLKAEIRRGFEYSDCAVDDARLVVLNAISAREHGAHVHTRTRCVSARRSKGLWHLHLERSDGSLYSIRARALVNAAGPWVARFIQDDLKQKSPYGIRLIQGSHIIVPKLYEGEHAYILQNEDRRIVFAIPYLDRFTMIGTTDREYQGDPAKVAISEEETAYLLQVVNAHFKQQLAAADILHSFAGVRPLCDDESDEPSAITRDYTLSLSAGNGEPPLLSVFGGKLTTYRKLAESALTQLQPFFANLGPAWTAKAPLPGGEQMQSVEALTEQLANRYAWLDRELALRWARTYGTRVWRLLDGVNGEADLGEHLGGGLYAREVDYLCKHEWAQDAEDILWRRSKLGLFLSPSQQVRLGQYLQSEHPHRPRVHAALEHHHHHH | soluble
19 | MGHHHHHHSHVLLFVYGEPVTRPHSGPAVYFWRHRKQADLDLARGDFAQAAQQLWLALRALGRPLPTSHLDLACSLLWNLIRHLLQRLWVGRWLAGRAGGLQQDCALRVDASASARDAALVYHKLHQLHTMGKHTGGHLTATNLALSALNLAECAGDAVSVATLAEIYVAAALRVKTSLPRALHFLTRFFLSSARQACLAQSGSVPPAMQWLCHPVGHRFFVDGDWSVLSTPWESLYSLAGNPVDPLAQVTQLFREHLLERALNCVTQPNPSPGSADGDKEFSDALGYLQLLNSCSDAAGAPAYSFSISSSMATTTGVDPVAKWWASLTAVVIHWLRRDEEAAERLCPLVEHLPRVLQESERPLPRAALHSFKAARALLGCAKAESGPASLTICEKASGYLQDSLATTPASSSIDKAVQLFLCDLLLVVRTSLWRQQQPPAP | not soluble
